As a reminder, the Kd is a measure of binding affinity in units of concentration. High values mean weaker binding, low ones tighter binding. For orientation: koff means the rate constant with which the complex falls apart. Usually kon stands for the second-order rate constant of association.

The record followed here is patent US20240301067A1 (WUXI BIOLOGICS IRELAND, published 2024).

Common to all, as to test: SPR Biacore 8K; PD-1-hFc captured on anti-human Fc chip, VHH injected; 1:1 fit
Assay [1] addresses T1, Cynomolgus PD-1 extracellular domain, hFc tag (cynomolgus, UniProt B0LAJ3 25-170).
T1 construct: Bought; also called cynoPro1.ECD.hFc; cyno PD-1 ECD protein
The method, then:
(§1) To screen WBP3056 VHH antibodies from affinity maturation, koff to hPro1.ECD.hFc, mPro1.ECD.hFc and cynoPro1.ECD.hFc (AcrobioSystems) was detected by SPR assay using Biacore 8K. hPro1.ECD.hFc, mPro1.ECD.hFc or cynoPro1.ECD.hFc (AcrobioSystems) was captured on an anti-human IgG Fc antibody immobilized CM5 sensor chip. Each VHH antibody was injected over the sensor chip at a flow rate of 30 uL/min for an association phase of 120 s, followed by 150 s dissociation. The association and dissociation curve was fit to a 1:1 model using Langmuir analysis.

The target in assay [2] is T2, Human PD-1 extracellular domain, hFc tag (human, UniProt Q15116 25-170).
T2 construct: extracellular domain; also called hPro1.ECD.hFc; not shown: human Fc tag at C-terminus
The method, then:
as §1

Assay [3] has as its target T3, Mouse PD-1 extracellular domain, hFc tag (mouse, UniProt Q02242 25-169).
T3 construct: extracellular domain; also called mPro1.ECD.hFc; not shown: human Fc tag at C-terminus
T3 sequence (looked up): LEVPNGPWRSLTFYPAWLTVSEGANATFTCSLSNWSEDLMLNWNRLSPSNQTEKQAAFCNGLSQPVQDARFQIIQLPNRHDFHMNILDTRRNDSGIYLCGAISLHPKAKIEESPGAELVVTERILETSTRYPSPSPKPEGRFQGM
The method, then:
as §1

T2 sequence (Q15116 25-170): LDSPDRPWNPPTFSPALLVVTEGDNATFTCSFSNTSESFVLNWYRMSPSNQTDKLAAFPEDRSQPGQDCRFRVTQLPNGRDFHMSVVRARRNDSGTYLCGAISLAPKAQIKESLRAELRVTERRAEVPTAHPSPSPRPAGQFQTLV
T1 sequence (B0LAJ3 entry or part of it limits assumed): as the sequence (Q15116 25-170) above, with D2E, P10A, V19L, T35A, Q75R, T144A counted along it

B1: AP17R1-2H2-Z1 (VHH)
VHH: QVQLVESGGGVVQPGGSLRLSCAASDSIDSLVNMGWYRQAPGKQRELVALIANYITHYADFVKGRFTISRDNSKNTLYLQMNSLRAEDTAVYYCYARNIIVDYWGQGTLVTVSS
notes: also called the humanized AP17R1-2H2; not shown: his- and c-Myc-tag from vector pETbac
In assay [1], B1 had a Kd of 36.4 nM, a koff of 0.00863 s⁻¹ and a kon of 237000 M⁻¹ s⁻¹. Also, in assay [2], the equilibrium dissociation constant (Kd) was 12.7 nM, the koff was found to be 0.00392 s⁻¹ and the kon was determined as 307000 M⁻¹ s⁻¹. In assay [3], the affinity, expressed as Kd, was 66.2 nM; the koff was determined as 0.0136 s⁻¹; the kon is 205000 M⁻¹ s⁻¹.

B2: AP17R1-2H2-Z1-R1-4B2 (VHH)
VHH: QVQLVESGGGVVQPGGSLRLSCAASDSISSLVNMGWYRQAPGKQRELVALIANYITHYADFVKGRFTISRDNSKNTLYLQMNSLRAEDTAVYYCYARNIIVDYWGQGTLVTVSS
notes: not shown: his- and c-Myc-tag from vector pETbac
Take B2: in assay [1], binding was put at a Kd of 25.5 nM, the koff is 0.00879 s⁻¹ and the kon stood at 345000 M⁻¹ s⁻¹. In assay [2], this molecule returned a dissociation constant Kd of 9.19 nM, a koff of 0.00413 s⁻¹ and a kon of 450000 M⁻¹ s⁻¹. In assay [3], this molecule yielded a Kd of 34.6 nM, a dissociation rate constant (koff) of 0.0101 s⁻¹ and a kon of 292000 M⁻¹ s⁻¹.

B3: AP17R1-2H2-Z1-R1-29B6 (VHH)
VHH: QVQLVESGGGVVQPGGSLRLSCAASDSIDSLVNMGWYRQAPGKQRELVALIANYITHYADFVKGRFTISRDNSKNTLYLQMNSLRAEDTAVYYCYARNIYVDYWGQGTLVTVSS
notes: as for B2
In the case of B3, the Kd turned out to be 20 nM in assay [1], 7.01 nM in assay [2] and 39.1 nM in assay [3]. Moreover, the koff was determined as 0.00646 s⁻¹ in assay [1], 0.00298 s⁻¹ in assay [2] and 0.0108 s⁻¹ in assay [3]. Moreover, the results for the kon in assay [1], in assay [2] and in assay [3] were 323000 M⁻¹ s⁻¹, 425000 M⁻¹ s⁻¹ and 277000 M⁻¹ s⁻¹, respectively.

B4: AP17R1-2H2-Z1-R1-6E1 (VHH)
VHH: QVQLVESGGGVVQPGGSLRLSCAASDSIDSMVNMGWYRQAPGKQRELVALIANYITHYADFVKGRFTISRDNSKNTLYLQMNSLRAEDTAVYYCYARNIIVDYWGQGTLVTVSS
notes: as for B2
In assay [1], B4 displayed a Kd of 22.1 nM, a koff of 0.00754 s⁻¹ and a kon of 341000 M⁻¹ s⁻¹. In assay [2], this molecule yielded a Kd of 7.48 nM, a koff of 0.00328 s⁻¹ and a kon of 439000 M⁻¹ s⁻¹. In assay [3], this molecule came in with a dissociation constant Kd of 50.8 nM, a koff of 0.0146 s⁻¹ and a kon of 287000 M⁻¹ s⁻¹.

B5: AP17R1-2H2-Z1-R1-14A1 (VHH)
VHH: QVQLVESGGGVVQPGGSLRLSCAASDSIDSLVNMGWYRQAPGKQRELVALIATYITHYADFVKGRFTISRDNSKNTLYLQMNSLRAEDTAVYYCYARNIIVDYWGQGTLVTVSS
notes: as for B2
On to B5, for which, in assay [1], binding was characterised by a dissociation constant (Kd) of 5.04 nM, the koff was 0.00213 s⁻¹ and the kon came out at 424000 M⁻¹ s⁻¹. In assay [2], this molecule yielded a Kd of 2.06 nM, a koff of 0.00112 s⁻¹ and a kon of 543000 M⁻¹ s⁻¹. Also, in assay [3], the Kd is 12.3 nM, the koff is 0.0047 s⁻¹ and the kon turned out to be 381000 M⁻¹ s⁻¹.

B6: AP17R1-2H2-Z1-R1-14F1 (VHH)
VHH: QVQLVESGGGVVQPGGSLRLSCAASDSIDSLVNMGWYRQAPGKQRELVALIAYYITHYADFVKGRFTISRDNSKNTLYLQMNSLRAEDTAVYYCYARNIIVDYWGQGTLVTVSS
notes: as for B2
For B6, the Kd amounted to 8.98 nM in assay [1], 3.28 nM in assay [2] and 7.8 nM in assay [3]. Also, the koff was found to be 0.00277 s⁻¹ in assay [1], 0.00135 s⁻¹ in assay [2] and 0.00218 s⁻¹ in assay [3]. Further, the kon worked out at 309000 M⁻¹ s⁻¹ in assay [1], 411000 M⁻¹ s⁻¹ in assay [2] and 280000 M⁻¹ s⁻¹ in assay [3].

B7: AP17R1-2H2-Z1-R1-30D3 (VHH)
VHH: QVQLVESGGGVVQPGGSLRLSCAASDSIDSLVNMGWYRQAPGKQRELVALIANYITHYADFVKGRFTISRDNSKNTLYLQMNSLRAEDTAVYYCYARNIIEDYWGQGTLVTVSS
notes: as for B2
As for B7, in assay [1], the affinity, expressed as Kd, was 19.2 nM; the koff came to 0.00624 s⁻¹; the kon was 325000 M⁻¹ s⁻¹. Moreover, in assay [2], binding was characterised by a dissociation constant (Kd) of 6.79 nM, the koff was 0.00282 s⁻¹ and the kon was found to be 416000 M⁻¹ s⁻¹. In assay [3], this molecule gave a Kd of 42.5 nM, a koff of 0.0118 s⁻¹ and a kon of 277000 M⁻¹ s⁻¹.

B8: AP17R1-2H2-Z1-R1-14B3 (VHH)
VHH: QVQLVESGGGVVQPGGSLRLSCAASDSIDSLVNMGWYRQAPGKQRELVALIARYITHYADFVKGRFTISRDNSKNTLYLQMNSLRAEDTAVYYCYARNIIVDYWGQGTLVTVSS
notes: as for B2
As for B8, in assay [1], binding was characterised by a dissociation constant (Kd) of 13.2 nM, the koff is 0.00484 s⁻¹ and the kon turned out to be 366000 M⁻¹ s⁻¹. In assay [2], this molecule gave a Kd of 5.09 nM, a koff of 0.00249 s⁻¹ and a kon of 489000 M⁻¹ s⁻¹. In assay [3], this molecule came in with a Kd of 17.3 nM, a koff of 0.00596 s⁻¹ and a kon of 344000 M⁻¹ s⁻¹.

B9: AP17R1-2H2-Z1-R1-27A2 (VHH)
VHH: QVQLVESGGGVVQPGGSLRLSCAASDSIDSLVNMGWYRQAPGKQRELVALIANYITHYADFVKGRFTISRDNSKNTLYLQMNSLRAEDTAVYYCYARSIIVDYWGQGTLVTVSS
notes: as for B2
In the case of B9, the Kd in assay [1] was 24.6 nM; in assay [2], 8.56 nM; in assay [3], 33.7 nM. The koff amounted to 0.00745 s⁻¹ in assay [1], 0.00331 s⁻¹ in assay [2] and 0.00894 s⁻¹ in assay [3]. The figures for the kon in assay [1], in assay [2] and in assay [3] were 302000 M⁻¹ s⁻¹, 387000 M⁻¹ s⁻¹ and 265000 M⁻¹ s⁻¹, respectively.

B10: AP17R1-2H2-Z1-R1-4D8 (VHH)
VHH: QVQLVESGGGVVQPGGSLRLSCAASDSIQSLVNMGWYRQAPGKQRELVALIANYITHYADFVKGRFTISRDNSKNTLYLQMNSLRAEDTAVYYCYARNIIVDYWGQGTLVTVSS
notes: as for B2
In assay [1], B10 showed a Kd of 26 nM, a koff of 0.00833 s⁻¹ and a kon of 320000 M⁻¹ s⁻¹. Also, in assay [2], the Kd was 9.49 nM, the koff amounted to 0.00396 s⁻¹ and the kon amounted to 417000 M⁻¹ s⁻¹. In assay [3], this molecule returned a Kd of 33.7 nM, a koff of 0.00955 s⁻¹ and a kon of 284000 M⁻¹ s⁻¹.

B11: AP17R1-2H2-Z1-R1-14F3 (VHH)
VHH: QVQLVESGGGVVQPGGSLRLSCAASDSIDSLVNMGWYRQAPGKQRELVALIAWYITHYADFVKGRFTISRDNSKNTLYLQMNSLRAEDTAVYYCYARNIIVDYWGQGTLVTVSS
notes: as for B2
As for B11, in assay [1], binding was characterised by a dissociation constant (Kd) of 7.18 nM, the koff came to 0.00247 s⁻¹ and the kon came to 344000 M⁻¹ s⁻¹. In assay [2], binding was put at a Kd of 2.35 nM, the koff was determined as 0.00109 s⁻¹ and the kon is 465000 M⁻¹ s⁻¹. Besides, in assay [3], the affinity, expressed as Kd, was 27.1 nM; the koff is 0.00732 s⁻¹; the kon stood at 270000 M⁻¹ s⁻¹.

B12: AP17R1-2H2-Z1-R1-29B2 (VHH)
VHH: QVQLVESGGGVVQPGGSLRLSCAASDSIDSLVNMGWYRQAPGKQRELVALIANYITHYADFVKGRFTISRDNSKNTLYLQMNSLRAEDTAVYYCYARNIRVDYWGQGTLVTVSS
notes: as for B2
With B12, the Kd in assay [1] amounted to 25.7 nM; in assay [2] it was 8.54 nM; in assay [3], 55.8 nM. The off-rate (koff) was 0.00817 s⁻¹ in assay [1], 0.00347 s⁻¹ in assay [2] and 0.0148 s⁻¹ in assay [3]. Further, the kon in assay [1] was found to be 318000 M⁻¹ s⁻¹; in assay [2], 406000 M⁻¹ s⁻¹; in assay [3], 264000 M⁻¹ s⁻¹.
